Laboratory results reported in publication PMC3492541 (Nature structural & molecular biology, 2012).

B1: GST 7D (GST tail phosphomimetic in both zone 1 and zone 2) (domain or fragment, human, UniProt O14777 1-80, looked up)
chain: MKRSDVSDGGAGRLDMQELRSQDVNKQGLYTPQTKEKPTFGKLDINKPTSERKVDLFGKRTDGHGSRNDQLGIFSSSEKI
B2: GST tail phosphomimetic in zone 2 (domain or fragment, human, UniProt O14777 1-80, looked up)
chain: MKRSDVSDGGAGRLDMQELRSQDVNKQGLYTPQTKEKPTFGKLSINKPTSERKVSLFGKRTSGHGSRNSQLGIFSSSEKI
B3: GST 4D (GST tail phosphomimetic in zone 1) (domain or fragment, human, UniProt O14777 1-80, looked up)
chain: MKRSSVSSGGAGRLSMQELRSQDVNKQGLYTPQTKEKPTFGKLDINKPTSERKVDLFGKRTDGHGSRNDQLGIFSSSEKI

What follows are binders tested against taxol-stabilized microtubules (UniProt Q6B856 1-439) (assay: co-sedimentation).

Compared with B1, B2 is lower in “reduction of microtubule binding relative to GST 1–80” value: 80% for the first, 20% for the second.

With B3 the “reduction of microtubule binding relative to GST 1–80” value was 60%.
